Usually Kd stands for the constant that tells how readily two partners part at equilibrium. In general, koff refers to the rate constant with which the complex falls apart. A word on the kon: it is the rate constant with which the complex forms. The EC50 (read off the curve) is the midpoint of the concentration-response curve.

The values that follow come from patent publication US20110256132A1 (published 2011).

Assay [1] has as its target T1, mature myostatin (recombinant, dimeric) (mouse polyprotein used for in-house …, UniProt O08689 268-376).
T1 sequence: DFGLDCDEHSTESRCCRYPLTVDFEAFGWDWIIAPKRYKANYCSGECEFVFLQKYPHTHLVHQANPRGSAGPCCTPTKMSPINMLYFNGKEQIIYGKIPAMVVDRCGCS
Briefly: cell-based or functional assay.

The target in assay [2] is T1, mature myostatin (recombinant, dimeric). The assay is described as follows: cell-based or functional assay. The source holds these as a separate data set.
The target is the same in assay [3]. The assay is described as follows: cell-based or functional assay. This is another data set of the same source.
For assay [4] the target is unchanged. The assay is described as follows: BIAcore, low density myostatin surface, methods as in 4.3. A general note: In SPR one partner is held on a chip, and binding of the other changes the refractive index at the surface.
For assay [5] the target is unchanged. The assay is described as follows: FORTEbio bio-layer interferometry, myostatin amine-coupled to sensor, 20 nM antibody, 1:1 fit. On the procedure: The affinity of 10B3 mouse parental and H2L2-C91S developability variant for recombinant myostatin was also assessed by FORTEbio™ (bio-layer inferometry) analysis. FORTEbio™ analyses were carried out by antigen capture. Myostatin (in-house, see above at 1.1) was coupled onto amine reactive biosensors by primary amine coupling in accordance with the manufacturer's instructions. Antibodies were then captured onto this surface at 20 nM concentrations. The data was analysed using the evaluation software inherent in the machine and the data analysed using 1:1 fit (see Table 16). Due to the limited number of myostatin molecules bound to the sensor surface and the low antibody concentration, avidity effects are reduced, enabling a more accurate measure of affinity compared to the Biacore analyses. […] However, due to the nature of the binding of the antibodies to myostatin, these values are mainly used for ranking purposes, and the affinity may not be representative of the affinity in vivo.
Background: In BLI a coated tip is dipped into the sample, and binding shifts an interference pattern.

For assay [6] the target is unchanged. Briefly: myostatin binding ELISA after 48 h at 37 C in 1% ammonium bicarbonate pH 9.0 (Examples 5.2, 4.2), A490. (An ELISA detects its analyte on a solid surface through an enzyme-linked reagent.)
Assay [7] shares this target. Briefly: myostatin binding ELISA, 10 ng/well recombinant myostatin coated, CHOK1 supernatants, anti-human kappa HRP, A490 (Examples 5.1, 4.2).
Assay [8] shares this target. Briefly: cell-based or functional assay. The source holds these as a separate data set.
The target is the same in assay [9]. Briefly: BIAcore, low density myostatin surface, antibody analyte, 1:1 model. On the procedure: (§1) Purified H0L0, H1L2 and H2L2 bound recombinant myostatin by BIAcore™ Recombinant myostatin was immobilised at three different densities (low, medium and high, to give R-max values of approximately 35, 120 and 350 RU's respectively) onto a BIAcore™ chip. Antibodies were passed over at 256, 64, 16, 4 and 1 nM. 0 nM antibody was used for double referencing and data was fitted to the 1:1 model.

The target is the same in assay [10]. Briefly: BIAcore, high density myostatin surface, antibody analyte, 1:1 model (poor fits). On the procedure: as §1
The target is the same in assay [11]. Briefly: BIAcore, medium density myostatin surface, antibody analyte, 1:1 model (poor fits). On the procedure:
as §1

Assay [12] has the same target. The assay is described as follows: myostatin binding ELISA after 48 h at 37 C in PBS (Examples 5.2, 4.2), A490.
Assay [13] shares this target. Briefly: myostatin binding ELISA after 48 h at 37 C in 1% ammonium bicarbonate pH 9.0 (Examples 5.2, 4.2), A490. The source holds these as a separate data set.
Assay [14] has the same target. The assay is described as follows: myostatin binding ELISA with purified antibody, 10 ng/well recombinant myostatin coated, anti-human kappa HRP, A490 (Examples 4.1, 4.2). On the procedure:
(§2) The myostatin binding ELISA was carried out approximately according to this protocol. A 96-well ELISA plate was coated at 4° C. overnight with 10 ng/well recombinant myostatin. This plate was then washed 3-times in wash buffer (PBS, 0.1% Tween-20). The wells were blocked for 1 hour at room temperature with block solution (PBS, 0.1% Tween-20+1% bovine serum albumin [BSA]), before washing 3-times in wash buffer. Antibodies were then titrated out to a suitable concentration range (approximately 100 to 0.001 μg/ml), added to the plate and incubated for 1 hour at room temperature. The plate was then washed 3-times in wash buffer. An anti-mouse IgG HRP-conjugated antibody (P0260 by Dako, this reagent was used according to the manufacturer's instructions) was used to detect binding of mouse antibodies, such as 10B3. An anti-human kappa light chain HRP-conjugated antibody (A7164 by Sigma Aldridge, this reagent was used according to the manufacturer's instructions) was used to detect binding of humanized or chimeric antibodies, such as 10B3 chimera or H0L0. The plate was then washed 3-times in wash buffer and developed with an OPD substrate (from Sigma, used according to the manufacturer's instructions) and read at 490 nm on a plate reader.

Assay [15] shares this target. The assay is described as follows: myostatin binding ELISA with purified antibody, 10 ng/well recombinant myostatin coated, anti-human kappa HRP, A490 (Examples 4.1, 4.2); the text says the CHOK1 material was hard to quantify. On the procedure: as §2
Assay [16] shares this target. The assay is described as follows: ProteOn XPR36, antibody captured from supernatant, myostatin analyte. On the procedure:
The initial kinetic analyses for the CDRH3 screen were carried out on the ProteOn XPR36 (Biorad Laboratories). For residues R95 to P100_B, analysis was carried out using a Protein A/G capture surface (Pierce 21186) was used and for residues A100_C to V102, an anti-human IgG surface was used (Biacore/GE Healthcare BR-1008-39). Both capture surfaces were prepared similarly using primary amine coupling to immobilise the capture molecule on a GLM chip (Biorad Laboratories 176-5012). CDRH3 variants were captured directly on either the Protein A/G or anti-human IgG surface (depending on the residue mutated) from tissue culture supernatants from transient transfections expressing the particular variant of interest. After capture, in-house recombinant human myostatin (see 1.1 above) was used as an analyte at 256 nM, 32 nM, 4 nM, 0.5 nM and 0.0625 nM, with a buffer injection alone (i.e. 0 nM) used to double reference the binding curves. Following the myostatin binding event, the capture surfaces were regenerated: for the Protein A/G capture surface, 100 mM phosphoric acid was used to regenerate the capture surface; and for the anti-human IgG surface, 3M MgCl₂ was used to regenerate the capture surface; the regeneration removed the previously captured antibody ready for another cycle of capture and binding analysis. […]

Assay [17] has the same target. The assay is described as follows: myostatin binding ELISA, CHOK1 supernatants. On the procedure: as §2, with “An anti-human kappa light chain HRP-conjugated antibody (A7164 by Sigma Aldridge, this reagent was used according to the manufacturer's instructions) was used to detect binding of humanized or chimeric antibodies, such as 10B3 chimera or H0L0.” left out
The plasmids for each antibody were transfected into CHOK1 cells in duplicate and in two separate experiments. Antibodies produced in the CHOK1 cell supernatant were analysed for activity in the myostatin binding ELISA. […]

Where two headings read alike, the source gives them in different places.

B1: H2L2 C91S (H2L2-C91S) (antibody, human IgG1, kappa, V domains shown)
VH: QVQLVQSGAEVKKPGASVKVSCKASGYSFTGYFMHWVRQAPGQGLEWMGNIYPYNGVSNYNQRFKARVTMTTDTSTSTAYMELRSLRSDDTAVYYCARRYYYGTGPADWYFDVWGQGTLVTVSS
VL: DIQMTQSPSSLSASVGDRVTITCKASQDINSYLSWFQQKPGKAPKSLIYRANRLVDGVPSKFSGSGSGTDYTLTISSLQPEDFATYYCLQSDEFPLTFGQGTKLEIKR
notes: Humanised, human IgG1/kappa; also called base molecule; base H2L2-C91S
As to B1, the “Mean IC50, A204 in vitro activity assay” value in assay [1] is 9.26 nM; in [3], 4.08 nM. In addition, in [2], the “Mean IC50, A204 in vitro activity assay (5 nM myostatin)” value was 5.14 nM. For the same molecule, the Kd amounted to 16.6 nM in [4] and 0.073 nM in assay [5]. In [5], the koff came out at 2.99e-05 s⁻¹. Besides, the kon in assay [5] was found to be 410000 M⁻¹ s⁻¹. For the same molecule, the concentration for a half-maximal effect (EC50 (read off the curve)) in assay [6] was approximately 1 nM.

B2: H2L2 N54D & C91S (H2L2-N54D-C91S) (antibody, human IgG1, kappa, V domains shown)
VH: QVQLVQSGAEVKKPGASVKVSCKASGYSFTGYFMHWVRQAPGQGLEWMGNIYPYDGVSNYNQRFKARVTMTTDTSTSTAYMELRSLRSDDTAVYYCARRYYYGTGPADWYFDVWGQGTLVTVSS
VL: DIQMTQSPSSLSASVGDRVTITCKASQDINSYLSWFQQKPGKAPKSLIYRANRLVDGVPSKFSGSGSGTDYTLTISSLQPEDFATYYCLQSDEFPLTFGQGTKLEIKR
Turning to B2, the binding result in assay [7] was “no binding”.

B3: H2L2 N54D (H2L2-N54D) (antibody, human IgG1, kappa, V domains shown)
VH: QVQLVQSGAEVKKPGASVKVSCKASGYSFTGYFMHWVRQAPGQGLEWMGNIYPYDGVSNYNQRFKARVTMTTDTSTSTAYMELRSLRSDDTAVYYCARRYYYGTGPADWYFDVWGQGTLVTVSS
VL: DIQMTQSPSSLSASVGDRVTITCKASQDINSYLSWFQQKPGKAPKSLIYRANRLVDGVPSKFSGSGSGTDYTLTISSLQPEDFATYYCLQCDEFPLTFGQGTKLEIKR
Turning to B3, the binding result in [7] is “no binding (tested: about 33 nM)”.

B4: H2L2 (antibody, human IgG1, kappa, V domains shown)
VH: QVQLVQSGAEVKKPGASVKVSCKASGYSFTGYFMHWVRQAPGQGLEWMGNIYPYNGVSNYNQRFKARVTMTTDTSTSTAYMELRSLRSDDTAVYYCARRYYYGTGPADWYFDVWGQGTLVTVSS
VL: DIQMTQSPSSLSASVGDRVTITCKASQDINSYLSWFQQKPGKAPKSLIYRANRLVDGVPSKFSGSGSGTDYTLTISSLQPEDFATYYCLQCDEFPLTFGQGTKLEIKR
notes: Humanised, human IgG1 wild type/kappa
Turning to B4, the “Mean IC50, A204 in vitro activity assay” value is 8.6 nM in assay [8] and 10.1 nM in assay [1]. Also, the dissociation constant Kd in assay [4] turned out to be 12 nM; in assay [9], 8.37 nM; in assay [10], 1.47 nM; in assay [11], 3 nM. The values for the off-rate (koff) in [9], in [10] and in assay [11] were 0.00268 s⁻¹, 0.000216 s⁻¹ and 0.000737 s⁻¹, respectively. Further, the on-rate (kon) in [9] stood at 321000 M⁻¹ s⁻¹; in assay [10], 147000 M⁻¹ s⁻¹; in [11], 246000 M⁻¹ s⁻¹. Further, the “EC50 (read off the curve)” value in assay [12] is approximately 0.7 nM; in assay [13], approximately 0.6 nM; in [14], approximately 0.09 µg/mL; in [15], approximately 0.1 µg/mL.

B5: CDRH3 variant F100G_S of H2L2-C91S (antibody, human IgG1, kappa, V domains shown)
VH: QVQLVQSGAEVKKPGASVKVSCKASGYSFTGYFMHWVRQAPGQGLEWMGNIYPYNGVSNYNQRFKARVTMTTDTSTSTAYMELRSLRSDDTAVYYCARRYYYGTGPADWYSDVWGQGTLVTVSS
VL: DIQMTQSPSSLSASVGDRVTITCKASQDINSYLSWFQQKPGKAPKSLIYRANRLVDGVPSKFSGSGSGTDYTLTISSLQPEDFATYYCLQSDEFPLTFGQGTKLEIKR
notes: tested only in the supernatant screen
As for B5, the binding result in assay [16] is on record as “binds”.

B6: 10B3 chimera N54D (HCLC-N54D) (antibody, human IgG1, kappa, V domains shown)
VH: EVQLQQSGPELVKPGASVKISCKASGYSFTGYFMHWVKQSHGNILDWIGNIYPYDGVSNYNQRFKAKATLTVDKSSSTAYMELRSLTSEDSAVYYCARRYYYGTGPADWYFDVWGTGTLVTVSS
VL: DIKMTQSPSSMYASLRERVTITCKASQDINSYLSWFQQKPGKSPKTLIYRANRLVDGVPSRFSGSGSGQDYSLTISSLEYEDMGIYYCLQCDEFPLTFGAGTKLELKR
With B6, the binding result in assay [17] was “no binding”.

B7: 10B3 chimera N54D & C91S (HCLC-N54D-C91S) (antibody, human IgG1, kappa, V domains shown)
VH: EVQLQQSGPELVKPGASVKISCKASGYSFTGYFMHWVKQSHGNILDWIGNIYPYDGVSNYNQRFKAKATLTVDKSSSTAYMELRSLTSEDSAVYYCARRYYYGTGPADWYFDVWGTGTLVTVSS
VL: DIKMTQSPSSMYASLRERVTITCKASQDINSYLSWFQQKPGKSPKTLIYRANRLVDGVPSRFSGSGSGQDYSLTISSLEYEDMGIYYCLQSDEFPLTFGAGTKLELKR
Consider B7, for which, in [17], the binding result is “no binding”.
